The results in this text go back to patent US20220040304A1, “A COMPOSITION FOR CANCER CELL DEATH AND ITS USE” (Industry-University Cooperation Foundation Hanyang …, priority 2018, published 2022).

A short description of data set [1]: Fluorescence assay of purified proteins (excitation/emission). Particulars: protein 10 μM in 1×PBS. In kind it is physicochemical. Here is the method: 100 μL of buffer (1×PBS) containing the protein purified in Example 1 (final concentration: 10 μM) was dispensed into a 96-well plate (SPL Cell Culture Plate, 96 well (SPL, Cat #32096)). Afterward, a fluorescence signal level was detected by fluorescence assay using a Thermo Scientific™ Varioskan™ Flash Multimode Reader.

Data set [2] in a line: Bioluminescence assay of purified proteins with Co-h substrate (BRET). In kind it is physicochemical. Particulars: protein 1 μM, Co-h 50 μM, 1×PBS. Here is the method:
In addition, 100 μL of buffer (1×PBS) containing the protein purified in Example 1 (final concentration: 1 μM) was dispensed into a 96-well plate (SPL Cell Culture Plate, 96 well (SPL, Cat #30196)), and bioluminescence assay was then performed using 50 μL of buffer (1×PBS) containing a Co-h substrate solution (final concentration: 50 μM), which is a wild-type 2-deoxy derivative. Bioluminescence intensity was immediately measured at a wavelength of 300 to 800 nm using a Thermo Scientific™ Varioskan™ Flash Multimode Reader.
(In general: Bioluminescence resonance energy transfer reports proximity on the nanometre scale.)

Data set [3] deals with patient breast cancer cell lines (primary cells, triple negative). Put plainly: Cytotoxic effect in patient primary breast cancer cells (triple negative). Particulars: protein 10 μM. It is filed as cell-based. Here is the method:
Cells were seeded at 5×10^5 cells/mL in 96-well plates (SPL Cell Culture Plate, 96 well (SPL, Cat #30096)), and cultured at 37° C. for 24 hours. After the culture for 24 hours, the cells were washed with primary cell media, and 100 μL of primary cell media containing a purified protein (final concentration: 10 μM) was added, followed by reaction at 37° C. for 12 hours.
After the reaction for 24 hours, the cells were washed with primary cell media, and 100 μL of primary cell media was added. After treatment with a Co-h substrate solution (final concentration: 150 μM) for 5 minutes or irradiation with light at 10 mW/cm^2 for 5 minutes, 50 μL of SYTOX Green (final concentration: 261 nM) staining DNA of dead cells was added, followed by reaction at 37° C. for 30 minutes.
10 μL of DAPI staining DNA of live cells was added, followed by reaction for 5 minutes. Cell death was confirmed by fluorescence imaging of SYTOX Green and DAPI fluorescence according to the type of protein treating cells and the light irradiation time using a confocal microscope. Data on patient breast cancer cell lines used in this example are as follows (Table 5).

Another data set has as its system MDA-MB-435. The data set can be described thus: Cell death after light irradiation by cell type (SYTOX Green/DAPI). It is filed as cell-based, human. Particulars: MDA-MB-435, protein 10 μM, light 10 mW/cm^2 for 10 minutes. As to the method:
MDA-MB-435: (Origin: breast, mammary gland, Species: human—person, Media: DMEM with glucose (4.5 g/L), L-glutamine and sodium pyruvate, 90%; heat inactivated fetal bovine serum (FBS), 10%), purchased from ATCC (USA).
The cells were seeded at 5×10^5 cells/mL in 96-well plates (SPL Cell Culture Plate, 96 well (SPL, Cat #30096)), and cultured at 37° C. for 24 hours (overnight). After the culture for 24 hours, the cells were washed with FBS & phenol red-free media, and 100 μL of FBS & phenol red-free media containing a purified protein (final concentration: 10 μM) was added, followed by reaction at 37° C. for 24 hours. After the reaction for 24 hours, the cells were washed with FBS & phenol red-free media, and 100 μL of FBS & phenol red-free media was added.
After irradiation with light at 10 mW/cm^2 for 10 minutes, 50 μL (final concentration: 261 nM) of SYTOX Green staining DNA of dead cells was added, followed by reaction at 37° C. for 30 minutes. 10 μL of DAPI staining DNA of live cells was added, followed by reaction for 5 minutes. Cell death was confirmed by observing KillerRed, SYTOX Green and DAPI fluorescence using a confocal microscope.

A further data set has as its system MCF-7 cells. The data set can be described thus: Cell death according to incubation time per light irradiation time (SYTOX Green/DAPI). In kind it is cell-based, human. Particulars: MCF-7, protein 10 μM. Here is the method:
MCF-7 cells were seeded at 5×10^5 cells/mL in a 96-well plate (SPL Cell Culture Plate, 96 well (SPL, Cat #30096)), and cultured at 37° C. for 24 hours (overnight). After the culture for 24 hours, the cells were washed with FBS & Phenol red-free media (RPMI, Well Gene., Korea, Cat #LM011-02), and 100 μL of an FBS-free medium containing the purified protein (final concentration: 10 μM) was added, followed by reaction at 37° C. for 24 hours.
After the reaction for 24 hours, the cells were washed with FBS & Phenol red-free media (RPMI), and then 100 μL of FBS & Phenol red-free media (RPMI) was added again. After light irradiation at 10 mW/cm^2 over time, the cells were incubated at 37° C.
After incubation, 50 μL of SYTOX Green (final concentration: 261 nM) staining DNA of dead cells and 10 μL of DAPI (Vector Laboratories Inc., USA) staining DNA of live cells were added, followed by reaction for 5 minutes. Cell death was confirmed by detecting KillerRed, SYTOX Green and DAPI fluorescence according to the light irradiation time for cells using a confocal microscope.

In the next data set the test system is SK-BR-3. Put plainly: Cell death with Co-h substrate by cell type (SYTOX Green or EthD-1/DAPI). Particulars: SK-BR-3, protein 10 μM, Co-h 150 μM for 5 minutes. It is filed as cell-based, human. As to the method: (§1) The cells were seeded at 5×10^5 cells/mL in 96-well plates (SPL Cell Culture Plate, 96 well (SPL, Cat #30096)), and cultured at 37° C. for 24 hours (overnight). After the culture for 24 hours, the cells were washed with FBS & phenol red-free media, and 100 μL of FBS & phenol red-free media containing a purified protein (final concentration: 10 μM) was added, followed by reaction at 37° C. for 24 hours.
(§2) Subsequently, the cells were washed with FBS & phenol red-free media, and 100 μL of FBS & phenol red-free media was added. 100 μL of FBS & Phenol red-free media (RPMI) containing a Co-h substrate solution (final concentration: 150 μM) was added, followed by reaction at 37° C. for 5 minutes.
(§3) After the reaction, 50 μL of SYTOX Green (final concentration: 261 nM) or 90 μL of ethidium homodimer (EthD-1) (final concentration 1×), which stains DNA of dead cells, was added, followed by reaction at 37° C. for 30 minutes. 10 μL of DAPI staining DNA of live cells was added, followed by reaction for 5 minutes. Cell death was confirmed by observing KillerRed, SYTOX Green, MiniSOG, EthD-1 and DAPI fluorescence using a confocal microscope.

A further data set relates to MCF-10A. Described as above. It is filed as cell-based, human. Particulars: protein 10 μM, Co-h 150 μM for 5 minutes. Here is the method:
as §1, §2, §3

The next data set concerns BT-474. Described as above. It is filed as cell-based, human. Particulars: BT-474, protein 10 μM, Co-h 150 μM for 5 minutes. Here is the method:
as §1, §2, §3

B1: KR: first protein KillerRed, ROS-generating protein (superoxide), expressed from pRSET-KillerRed, 31 kDa (protein)
chain: MRGSHHHHHHGMASMTGGQQMGRDLYDDDDKDPMLCCMRRTKQVEKNDEDQKISEGGPALFQSDMTFKIFIDGEVNGQKFTIVADGSSKFPHGDFNVHAVCETGKLPMSWKPICHLIQYGEPFFARYPDGISHFAQECFPEGLSIDRTVRFENDGTMTSHHTYELDDTCVVSRITVNCDGFQPDGPIMRDQLVDILPNETHMFPHGPNAVRQLAFIGFTTADGGLMMGHFDSKMTFNGSRAIEIPGPHFVTIITKQMRDTSDKRDHVCQREVAYAHSVPRITSAIGSDED
modifications: pRSET-KillerRed
notes: first protein KillerRed, ROS-generating protein (superoxide), expressed from pRSET-KillerRed, 31 kDa
On to B1, for which, in data set [1], the “emission wavelength (fluorescence)” value was found to be 610 nm and the excitation wavelength amounted to 585 nm. The “emission in bioluminescence assay (BRET)” value in data set [2] turned out to be 610 nm.

B2: RLuc8.6-KR-LP: fusion protein of RLuc8.6, KillerRed and lead peptide WLEAAYQRFL, 71 kDa (protein)
chain: MRGSHHHHHHGMASMTGGQQMGRDLYDDDDKDPMASKVYDPEQRKRMITGPQWWARCKQMNVLDSFINYYDSEKHAENAVIFLHGNATSSYLWRHVVPHIEPVARCIIPDLIGMGKSGKSGNGSYRLLDHYKYLTAWFELLNLPKKIIFVGHDWGSALAFHYAYEHQDRIKAIVHMESVVDVIESWMGWPDIEEELALIKSEEGEKMVLENNFFVETLLPSKIMRKLEPEEFAAYLEPFKEKGEVRRPTLSWPREIPLVKGGKPDVVQIVRNYNAYLRASDDLPKLFIESDPGFFYNAIVEGAKKFPNTEFVKVKGLHFLQEDAPDEMGKYIKSFVERVLKNEQEFGGGMLCCMRRTKQVEKNDEDQKISEGGPALFQSDMTFKIFIDGEVNGQKFTIVADGSSKFPHGDFNVHAVCETGKLPMSWKPICHLIQYGEPFFARYPDGISHFAQECFPEGLSIDRTVRFENDGTMTSHHTYELDDTCVVSRITVNCDGFQPDGPIMRDQLVDILPNETHMFPHGPNAVRQLAFIGFTTADGGLMMGHFDSKMTFNGSRAIEIPGPHFVTIITKQMRDTSDKRDHVCQREVAYAHSVPRITSAIGSDEDGGGWLEAAYQRFL
modifications: pRSET-RLuc8.6-KillerRed-Lead peptide
Take B2: the “death of Co-h substrate-added cells compared with light irradiation” value in data set [3] (Co-h 150 μM for 5 minutes) is listed as “more effectively shown”. Further, the “cytotoxic effect in patient breast cancer cell lines” value in data set [3] (Co-h 150 μM for 5 minutes or light 10 mW/cm^2 for 5 minutes) is listed as “a cytotoxic effect was exhibited”. In addition, the “cell death after light irradiation” value in the data set on MDA-MB-435 is recorded as “killing the three types of cancer cell lines”. Also, in the data set on MCF-7 cells (light 10 mW/cm^2 for 1 minute), the “cell incubation time after which the number of cells stained with SYTOX Green increased” value is reported as “over 1 hour”. Moreover, in the data set with MCF-7 cells (light 10 mW/cm^2 for 5 minutes or 10 minutes), the “cell incubation time from which the number of cells stained with SYTOX Green increased” value is “approximately 30 minutes”.

B3: RLuc8.6-KR: fusion protein of RLuc8.6 and KillerRed without lead peptide, 69 kDa (protein)
chain: MRGSHHHHHHGMASMTGGQQMGRDLYDDDDKDPMASKVYDPEQRKRMITGPQWWARCKQMNVLDSFINYYDSEKHAENAVIFLHGNATSSYLWRHVVPHIEPVARCIIPDLIGMGKSGKSGNGSYRLLDHYKYLTAWFELLNLPKKIIFVGHDWGSALAFHYAYEHQDRIKAIVHMESVVDVIESWMGWPDIEEELALIKSEEGEKMVLENNFFVETLLPSKIMRKLEPEEFAAYLEPFKEKGEVRRPTLSWPREIPLVKGGKPDVVQIVRNYNAYLRASDDLPKLFIESDPGFFYNAIVEGAKKFPNTEFVKVKGLHFLQEDAPDEMGKYIKSFVERVLKNEQEFGGGMLCCMRRTKQVEKNDEDQKISEGGPALFQSDMTFKIFIDGEVNGQKFTIVADGSSKFPHGDFNVHAVCETGKLPMSWKPICHLIQYGEPFFARYPDGISHFAQECFPEGLSIDRTVRFENDGTMTSHHTYELDDTCVVSRITVNCDGFQPDGPIMRDQLVDILPNETHMFPHGPNAVRQLAFIGFTTADGGLMMGHFDSKMTFNGSRAIEIPGPHFVTIITKQMRDTSDKRDHVCQREVAYAHSVPRITSAIGSDED
modifications: pRSET-RLuc8.6-KillerRed
Consider B3, for which the “cell death with Co-h substrate” value with SK-BR-3, with MCF-10A and in the data set on BT-474 was “none of the six breast cancer cell lines were killed” each time.
